Measured values from patent publication US20200002421A1, “ANTI-B7-H3 ANTIBODIES AND ANTIBODY DRUG CONJUGATES” (AbbVie Inc., priority 2016, published 2020).

Columns and labels:
human B7-H3 = target: T1, human B7-H3 (Homo sapiens, UniProt Q5ZPR3); test: Epitope grouping by pair-wise Biacore SPR binding; conditions: simultaneous binding assay, FIG. 1
T1 construct: His tag (6xHis) (C)
T1 sequence (Q5ZPR3 with tags, fused parts or gaps): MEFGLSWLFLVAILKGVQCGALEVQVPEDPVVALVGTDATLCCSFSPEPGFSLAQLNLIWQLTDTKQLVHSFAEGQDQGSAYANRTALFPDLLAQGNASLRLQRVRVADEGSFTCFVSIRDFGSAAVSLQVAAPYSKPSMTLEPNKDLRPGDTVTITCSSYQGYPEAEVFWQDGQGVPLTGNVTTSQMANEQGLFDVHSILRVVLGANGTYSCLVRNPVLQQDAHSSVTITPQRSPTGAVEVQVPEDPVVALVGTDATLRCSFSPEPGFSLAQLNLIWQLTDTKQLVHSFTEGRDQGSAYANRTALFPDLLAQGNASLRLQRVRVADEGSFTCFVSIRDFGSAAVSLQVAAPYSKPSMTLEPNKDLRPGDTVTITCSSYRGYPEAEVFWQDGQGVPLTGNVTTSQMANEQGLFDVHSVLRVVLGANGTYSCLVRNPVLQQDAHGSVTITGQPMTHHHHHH
From the text: Pair-wise binding assays performed on Biacore T200 SPR instruments were used to determine the relative epitope grouping for the murine anti-B7-H3 mAbs as described in the methods below. […] Epitope groups are represented as individual ovals, some of which overlap with each other. Antibodies in different epitope groups can bind to B7-H3 simultaneously and likely bind to different epitopes while antibodies within a given epitope group cannot bind to B7-H3 simultaneously and likely bind to overlapping epitopes. The grouping information was derived from a simultaneous binding assay as described in materials and methods. Ab3, Ab4, Ab5, Abl 1, Ab12, and Ab8 groupings were ambiguous
Pair-wise binding assays performed on Biacore T200 SPR instruments were used to determine the relative epitope grouping for a series of anti-B7-H3 mAbs. The assay format was Fc-based capture via immobilized anti-mouse (Fc) (Pierce 31170) or immobilized anti-human (Fc) (Pierce 31125). A standard amine coupling protocol was employed to immobilize the capture reagents via primary amines to the carboxy-methyl (CM) dextran surface of CM5 sensorchips (Biacore); capture antibodies were coupled to a level of approximately 2000 RU. Epitope grouping measurements were done at 12° C. (low temperature allows for grouping information on fast off-rate mAbs), the assay buffer was HBS-EP+(Biacore): 10 mM Hepes, pH7.4, 150 mM NaCl, 3 mM EDTA, 0.05% polysorbate 20. Each assay cycle consisted of the following steps in a four flowcell system: 1) separate test mAbs were captured in flowcells 2, 3 & 4 (flowcell 1 was reference, no test mAb); 2) all 4 flowcells were then blocked by injection with isotype control mAb or isotype mAb cocktail at 50 μg/mL; 3) all 4 flowcells were then injected with antigen or buffer only (buffer only is for double referencing, done for each mAb pair individually); 4) all 4 flowcells were then injected with 2nd test mAb at 10 μg/mL; 5) all 4 flowcells were then regenerated with glycine, pH1.5. The assay was done for each test mAb pair in reciprocal orientations. Simultaneous binding was evaluated examining the ratio of the 2nd test mAb response to the Ag response (RUmAb2/RUAg); if this ratio was equal to or greater than 0.2 the interaction was scored as a simultaneous binder. From this pair-wise binding assay data a “venn” style diagram was constructed manually to depict relative epitope groupings.

huB7-H3 = target: T2, huB7-H3 (Homo sapiens, UniProt Q5ZPR3); test: Biacore T200 SPR binding kinetics, mAb capture; conditions: Table 3
T2 construct: His tag (6xHis) (C)
T2 sequence (Q5ZPR3 with tags, fused parts or gaps): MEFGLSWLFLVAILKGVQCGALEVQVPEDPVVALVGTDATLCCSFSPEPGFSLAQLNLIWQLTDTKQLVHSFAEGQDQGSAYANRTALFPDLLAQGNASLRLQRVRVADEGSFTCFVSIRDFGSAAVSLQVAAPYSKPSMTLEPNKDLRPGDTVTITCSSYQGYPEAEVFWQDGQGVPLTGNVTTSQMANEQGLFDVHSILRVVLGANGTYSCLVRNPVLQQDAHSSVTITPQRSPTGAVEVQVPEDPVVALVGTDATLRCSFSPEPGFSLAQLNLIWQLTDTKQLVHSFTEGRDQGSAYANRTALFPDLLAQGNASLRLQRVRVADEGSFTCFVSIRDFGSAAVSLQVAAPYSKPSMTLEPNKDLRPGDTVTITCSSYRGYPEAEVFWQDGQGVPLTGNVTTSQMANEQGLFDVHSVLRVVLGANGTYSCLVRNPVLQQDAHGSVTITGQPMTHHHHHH
Description: The binding affinity of the purified anti-B7-H3 monoclonal antibodies was determined by surface […]. […] The binding kinetics were derived from SPR measurements using a Biacore T200 instrument and a mAb capture approach (as described in the materials and methods below).
Biacore T200 SPR instruments were used to measure the binding kinetics of human B7-H3 (4Ig-B7-H3 variant) (analyte) binding to various mAbs (ligands). The assay format was Fc-based capture via immobilized anti-mouse (Fc) (Pierce 31170) or immobilized anti-human (Fc) (Pierce 31125). A standard amine coupling protocol was employed to immobilize the capture reagents via primary amines to the carboxy-methyl (CM) dextran surface of CM5 sensorchips (Biacore); capture antibodies were coupled to a level of approximately 5000 RU. For binding kinetic measurements the assay buffer was HBS-EP+(Biacore): 10 mM Hepes, pH7.4, 150 mM NaCl, 3 mM EDTA, 0.05% polysorbate 20. During the assay, all measurements were referenced against the capture surface alone. Each assay cycle consisted of the following steps: 1) Capture of ligand to approximately 50 RU; 2) Analyte injection over both reference and test surface, 240 μL at 80 μL/min, after which the dissociation was monitored for 900 seconds at 80 μL/min; 3) Regeneration of capture surface with low pH glycine. For kinetic determinations analyte injections were 3-point, 9-fold dilution series of 900 nM, 100 nM and 11.11 nM, buffer only injections were included for secondary referencing. Data were processed and fit to a 1:1 binding model using Biacore T200 Evaluation Software to determine the binding kinetic rate constants, ka (on-rate) and kd (off-rate), and the equilibrium dissociation constant (affinity, KD).

HCC38 cell line = test: In vitro cell viability assay (CellTiter-Glo), HCC38; type: cell-based, human; conditions: conjugated to synthon CZ
Description: The tumor cell lines HCC38 (breast cancer), NCI-H1650 (NSCLC) and NCI-H847 (small cell lung cancer cell line) were obtained from American Type Culture Collection (ATCC). Cells were grown in 96-well culture plates using recommended growth media overnight at a density of 5×10^3 (HCC38) or 20×10^3 (NCI-H847) or 40×10^3 (NCI-H1650) per well. The following day, treatments were added in fresh media to triplicate wells. Cellular viability was determined 5 days later using the CellTiter-Glo Luminescent Cell Viability Assay kit (Promega), as directed in the manufacturer's protocol. Cell viability was assessed as percentage of control untreated cells.

[1] = Conjugation observation (precipitation after conjugation, Method A); type: physicochemical; conditions: conjugated to synthon CZ
Description: Table 6 provides cell surface binding and cytotoxicity activity of anti-B7-H3 chimera ADCs against breast cancer cell HCC38 expressing human B7-H3.
A solution of Bond-Breaker™ tris(2-carboxyethyl)phosphine (TCEP) solution (10 mM, 0.017 mL) was added to a solution of antibody (10 mg/mL, 1 mL) preheated to 37° C. The reaction mixture was kept at 37° C. for 1 hour. The solution of reduced antibody was added to a solution of synthon (3.3 mM, 0.160 mL in DMSO) and gently mixed for 30 minutes. The reaction solution was loaded onto a desalting column (PD10, washed with Dulbecco's phosphate-buffered saline [DPBS] 3× before use), followed by DPBS (3 mL). The purified ADC solution was filtered through a 0.2 micron, low protein-binding 13 mm syringe-filter and stored at 4° C.

Row | Molecule | epitope grouping (human B7-H3) | huB7-H3 ka(1/Ms) (huB7-H3) [M⁻¹ s⁻¹] | cytotoxicity in cells expressing human B7-H3 / HCC38 cell line (in words) (HCC38 cell line) | precipitation following conjugation to synthon CZ (in words) [1]
1 | Ab12: mouse hybridoma anti-B7-H3 monoclonal antibody, mouse IgG1/k (antibody, V domains shown) VH: EVQLVESGGGLVKPGGSLKLSCAASGFTFSSYAMSWVRQTPEKRLEWVATISSGTNYTYYPDSVKGRFTISRDNAKNTLYLQMTSLRSEDTAMYYCARQGRYSWIAYWGQGTLVTVSA VL: DIVLTQSPASLAVSLGQRATISCRASKSVSTSDYSYMHWNQQKPGQPPKLLIYLASNLESGVPARFSGSGSGTDFTLNIHPVEEEDAATYYCQHSRELLTFGAGTKLELK | ambiguous | 38000 |  | 
2 | chAb2: chimeric anti-B7-H3 antibody huIgG1/k, parental hybridoma Ab2; VH SEQ ID NO: 1, VL SEQ ID NO: 5 (antibody, V domains shown, human IgG1/kappa constant regions; Synthetic chAb2 VH amino acid sequence; Synthetic chAb2 VL amino acid sequence) VH: QVQLQQPGAELVKPGASVKLSCKASGYTFTSYWMHWVKQRPGQGLEWIGMIHPDSGTTNYNEKFRSKATLTVDKSSSTAYMQLSSLTSEDSAVYYCAVYYGSTYWYFDVWGTGTTVTVSS VL: DVVMTQTPLSLPVSLGDQAYISCRSSQSLVHINGNTYLHWYRQKPGQSPKLLIYKVSNRFSGVPDRFSGSGSGTDFTLKISRVEAEDLGVYFCSQSTHFPFTFGSGTKLEIK |  |  | weak cytotoxicity | precipitated
3 | Ab11: mouse hybridoma anti-B7-H3 monoclonal antibody, mouse IgG1/k (antibody, V domains shown) VH: EVKLVESGGGLVQPGGSLRLSCATSGFTFTNYYMSWVRQPPGKALEWLGFIRNKANDYTTEYSASVKGRFTISRDNSQSILYLQMNTLRAEDSATYYCARESPGNPFAYWGQGTLVTVSA VL: DIVMTQSPSSLTVTAGEKVTMTCKSSQSLLNSGTQKNFLTWYQQKPGQPPKLLIYWASTRESGVPDRFTGSGSGTDFTLTISSVQAEDLAVYFCQNDYIYPLTFGAGTKLELK | ambiguous | 20000 |  | 
4 | Ab8: mouse hybridoma anti-B7-H3 monoclonal antibody, mouse IgG1/k (antibody, V domains shown) VH: EVKLVESGGGLVKPGGSLKLSCAASGFTFSSYGMSWVRQTPEKRLEWVATISGGGNYTYCPDSVKGRFTISRDNAKNNLYLQMSSLRSEDTALYYCTRQRGYDYHYAMDFWGQGTSVTVSS VL: DIQMTQSPASLSVSVGETVTITCRASENIYSNLAWHQQKQGKSPQLLVYAATNLADGVPSRFSGNGSDTQYSLKINSLQSEDFGSYFCQNFWGTSWTFGGGTKLEIK | ambiguous | 58000 |  | 
5 | chAb6: chimeric anti-B7-H3 antibody huIgG1/k, parental hybridoma Ab6; VH SEQ ID NO: 56, VL SEQ ID NO: 60 (antibody, V domains shown, human IgG1/kappa constant regions; Synthetic chAb6 VH amino acid sequence; Synthetic chAb6 VL amino acid sequence) VH: QVQLQQSGAELMKPGASVKISCKATGYTFSRYWIEWVKQRPGHGLEWIGEILPGSGSTNYNEKFKGKATFTADTSSNTAYMQVSSLTSEDSAVHYCARRGYGYVPYALDYWGQGTSVTVSS VL: EIQMTQTTSSLSASLGDRVTISCRASQDISNSLNWYQQKPDGTVNLLIYYTSRLYSGVPSRFSGSGSGTDYSLTISNLEQEDIATYFCQQGNTLPYTFGGGTKLEIK |  |  | weak cytotoxicity | precipitated
6 | chAb16: chimeric anti-B7-H3 antibody huIgG1/k, parental hybridoma Ab16; VH SEQ ID NO: 72, VL SEQ ID NO: 76 (antibody, V domains shown, human IgG1/kappa constant regions; Synthetic chAb16 VH amino acid sequence; Synthetic chAb16 VL amino acid sequence) VH: EVKLLESGGGLVQPGGSLKLSCAASGFDFSRYWMSWVRQAPGKGLEWIGEINPDSSTINYTPSLKDKFIISRDNAKNTLYLQMSKVRSEDTALYYCARPGFGNYIYAMDYWGQGTSVTVSS VL: DIQMTQTTSSLSASLGDRVTINCRASQDISNFLNWYQQKPDGTVKLLIYYTSRLYLGVPSRFSGSGSGTDYSLTISNLEQEDIATYFCQQGNTLPPTFGGGTKLEIK |  |  | weak cytotoxicity | precipitated
